Reference: patent US20180030136A1 (GlaxoSmithKline, published 2018)

T1: human ICOS on cells (human, UniProt Q9Y6W8 21-167)
T1 sequence: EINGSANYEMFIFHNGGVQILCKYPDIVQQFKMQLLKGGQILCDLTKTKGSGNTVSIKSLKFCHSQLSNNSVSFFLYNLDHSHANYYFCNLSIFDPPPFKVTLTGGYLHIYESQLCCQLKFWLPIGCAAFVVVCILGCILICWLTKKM

B1: ICOS mAb clone 88.2 (antibody, V domains shown)
VH: QVQLQQPGAELVRPGASVKLSCKASGYSFTSYWINWVKQRPGQGLEWIGNIYPSDSYTNYNQMFKDKATLTVDKSSNTAYMQLTSPTSEDSAVYYCTRWNLSYYFDNNYYLDYWGQGTTLTVSS
VL: QAVVTQESALTTSPGETVTLTCRSSTGAVTTSNYANWVQEKPDHLFTGLIGGTNNRAPGVPARFSGSLIGDKAALTITGAQTEDEAIYFCALWYNNHLVFGGGTKLTVL
notes: murine anti-human ICOS mAb
B2: H2L5 hIgG4PE (antibody)
heavy: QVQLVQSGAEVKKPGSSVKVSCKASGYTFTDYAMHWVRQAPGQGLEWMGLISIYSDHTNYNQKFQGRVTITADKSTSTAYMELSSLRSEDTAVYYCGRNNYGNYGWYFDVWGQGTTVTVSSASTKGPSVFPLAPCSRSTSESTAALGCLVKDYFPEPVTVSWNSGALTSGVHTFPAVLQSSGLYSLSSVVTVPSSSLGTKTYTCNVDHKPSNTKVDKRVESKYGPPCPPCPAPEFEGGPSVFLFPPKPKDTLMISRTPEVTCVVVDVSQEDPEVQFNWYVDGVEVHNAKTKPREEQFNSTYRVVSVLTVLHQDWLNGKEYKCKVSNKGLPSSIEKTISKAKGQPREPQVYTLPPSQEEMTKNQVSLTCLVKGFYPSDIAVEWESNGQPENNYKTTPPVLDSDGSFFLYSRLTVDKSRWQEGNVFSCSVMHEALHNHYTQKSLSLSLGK
light: EIVLTQSPATLSLSPGERATLSCSASSSVSYMHWYQQKPGQAPRLLIYDTSKLASGIPARFSGSGSGTDYTLTISSLEPEDFAVYYCFQGSGYPYTFGQGTKLEIKRTVAAPSVFIFPPSDEQLKSGTASVVCLLNNFYPREAKVQWKVDNALQSGNSQESVTEQDSKDSTYSLSSTLTLSKADYEKHKVYACEVTHQGLSSPVTKSFNRGEC
notes: also called H2L5 IgG4PE; copies: 2 + 2
B3: ICOS mAb clone 422.2 (antibody, V domains shown)
VH: QVQLQQSGPELVRPGESVKISCMGSGYTFTDYAMHWVKQSHAKSLEWIGLISIYSDHTNYNQKFQGKATMTVDKSSSTAYMELARLTSEDSAIYYCGRNNYGNYGWYFDVWGAGTTVTVSS
VL: ENVLTQSPAIMSASPGEKVTMTCSASSSVSYMHWYQQKSITSPKLWIYDTSKLASGVPGRFSGSGSGNSYSLTISSMEAEDVATYYCFQGSGYPYTFGGGTKLEIKR
notes: murine hybridoma mAb

Experiments:
cynomolgus ICOS = biological target: T2, cynomolgus ICOS (cynomolgus); experiment: Biacore, cyno ICOS
T2 construct: also called cyno ICOS; Biacore cyno

Cyno ICOS-Fc = biological target: T3, Cyno ICOS-Fc (cynomolgus; rabbit); experiment: BIAcore T200, antibody captured on anti-human IgG, ICOS (rabbit Fc) as analyte, 25 C, 1:1 model
T3 construct: also called cyno ICOS (rabbit Fc)
Method: The binding kinetics affinity of the humanized H2L5 hIgG4PE antibody was determined used the BIAcore T200Anti-human IgG on Fc2 of a CM5 chip Anti-ICOS H2L5 hIgG4PE captured on the surface. Anti-human IgG surface blocked with 0.1 mg/mL hIgG1 control to prevent non-specific binding of rabbit Fc. Human and cyno ICOS (rabbit Fc) passed over the captured antibodies at 256 nM, 64 nM, 16 nM, 4 nM and 1 nM. Buffer alone was used to double reference binding curves. MgCl₂ was used to regenerate surface. Run carried out at 25° C. Data fitted to 1:1 model using T200 evaluation software. Antibody concentration: 2.5 μg/mL
The ICOS binding data was fitted to a 1:1 kinetics model using the T200 data analysis software.

human ICOS on cells = biological target: T1, human ICOS on cells; experiment: cell-based or functional assay

Binder	Kd (cynomolgus ICOS) [nM]	Kd (Cyno ICOS-Fc) [nM]	koff (Cyno ICOS-Fc) [s⁻¹]	kon (Cyno ICOS-Fc) [M⁻¹ s⁻¹]	EC50 CD8+OX40+, donor 1149M52, 24 hr (human ICOS on cells) [µg/mL]	EC50 IFN-γ, donor 1136F50, 48 hr (human ICOS on cells) [µg/mL]
B1	23	–	–	–	–	–
B2	–	0.949	0.000371	391000	1.5	1.5
B3	4.46	–	–	–	–	–
